From patent publication US20180335429 come the findings set out here.

In this data set the target is T1, MMP substrate, 5-FAM-GGPLGVRGKK(CPQ2)-PEG2-C, presented on the iron-oxide nanoparticle (ABN) surface (not fully specified).
T1 chain: GGPLGVRGKKC

B1: mouse MMP9 (protein)
chain: APYQRQPTFVVFPKDLKTSNLTDTQLAEAYLYRYGYTRAAQMMGEKQSLRPALLMLQKQLSLPQTGELDSQTLKAIRTPRCGVPDVGRFQTFKGLKWDHHNITYWIQNYSEDLPRDMIDDAFARAFAVWGEVAPLTFTRVYGPEADIVIQFGVAEHGDGYPFDGKDGLLAHAFPPGAGVQGDAHFDDDELWSLGKGVVIPTYYGNSNGAPCHFPFTFEGRSYSACTTDGRNDGTPWCSTTADYDKDGKFGFCPSERLYTEHGNGEGKPCVFPFIFEGRSYSACTTKGRSDGYRWCATTANYDQDKLYGFCPTRVDATVVGGNSAGELCVFPFVFLGKQYSSCTSDGRRDGRLWCATTSNFDTDKKWGFCPDQGYSLFLVAAHEFGHALGLDHSSVPEALMYPLYSYLEGFPLNKDDIDGIQYLYGRGSKPDPRPPATTTTEPQPTAPPTMCPTIPPTAYPTVGPTVGPTGAPSPGPTSSPSPGPTGAPSPGPTAPPTAGSSEASTESLSPADNPCNVDVFDAIAEIQGALHFFKDGWYWKFLNHRGSPLQGPFLTARTWPALPATLDSAFEDPQTKRVFFFSGRQMWVYTGKTVLGPRSLDKLGLGPEVTHVSGLLPRRLGKALLFSKGRVWRFDLKSQKVDPQSVIRVDKEFSGVPWNSHDIFQYQDKAYFCHGKFFWRVSFQNEVNKVDHEVNQVDDVGYVTYDLLQCP
In the case of B1, the “cleavage of the substrate” value is “it was confirmed that mouse MMP9 cleaves the ABN MMP9 substrate”.
